# Source: patent US20210340207A1 (Merck Sharp & Dohme, published 2021)
# T1: Human IL-2Rβ (Table 7B) (human, UniProt P14784 27-239, limits assumed)
# T1 sequence (looked up): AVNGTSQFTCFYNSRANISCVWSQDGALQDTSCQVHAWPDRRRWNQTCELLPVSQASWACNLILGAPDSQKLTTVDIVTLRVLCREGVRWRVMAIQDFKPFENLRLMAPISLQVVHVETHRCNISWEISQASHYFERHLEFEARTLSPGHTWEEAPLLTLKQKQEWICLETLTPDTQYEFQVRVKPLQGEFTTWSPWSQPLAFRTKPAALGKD
# T2: mouse IL-2Rαβγc (on CTLL2-STAT5 reporter cells) (mouse, UniProt P01590 22-268; P16297 27-539; P34902 23-369)
# T2 sequence (looked up) 1: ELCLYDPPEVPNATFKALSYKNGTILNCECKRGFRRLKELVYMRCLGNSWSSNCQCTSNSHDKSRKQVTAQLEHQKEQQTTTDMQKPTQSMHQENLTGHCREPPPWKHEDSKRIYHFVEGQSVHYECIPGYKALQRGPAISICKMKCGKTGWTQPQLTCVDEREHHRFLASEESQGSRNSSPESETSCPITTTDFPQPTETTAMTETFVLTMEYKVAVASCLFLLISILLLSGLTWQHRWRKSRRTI
# T2 sequence (looked up) 2: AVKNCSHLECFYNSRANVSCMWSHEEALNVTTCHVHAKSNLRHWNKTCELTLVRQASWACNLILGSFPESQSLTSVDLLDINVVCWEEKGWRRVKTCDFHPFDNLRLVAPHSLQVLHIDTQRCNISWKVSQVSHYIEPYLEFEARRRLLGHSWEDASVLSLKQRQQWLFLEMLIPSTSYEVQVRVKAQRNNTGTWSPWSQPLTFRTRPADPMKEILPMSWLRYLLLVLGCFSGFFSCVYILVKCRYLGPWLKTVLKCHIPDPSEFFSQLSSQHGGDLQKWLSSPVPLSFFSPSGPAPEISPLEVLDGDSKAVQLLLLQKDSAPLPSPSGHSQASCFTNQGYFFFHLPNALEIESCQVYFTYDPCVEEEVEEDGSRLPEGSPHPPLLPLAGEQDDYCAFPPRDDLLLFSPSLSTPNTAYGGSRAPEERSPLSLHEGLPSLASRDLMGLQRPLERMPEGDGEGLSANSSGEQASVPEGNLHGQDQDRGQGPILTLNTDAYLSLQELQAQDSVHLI
# T2 sequence (looked up) 3: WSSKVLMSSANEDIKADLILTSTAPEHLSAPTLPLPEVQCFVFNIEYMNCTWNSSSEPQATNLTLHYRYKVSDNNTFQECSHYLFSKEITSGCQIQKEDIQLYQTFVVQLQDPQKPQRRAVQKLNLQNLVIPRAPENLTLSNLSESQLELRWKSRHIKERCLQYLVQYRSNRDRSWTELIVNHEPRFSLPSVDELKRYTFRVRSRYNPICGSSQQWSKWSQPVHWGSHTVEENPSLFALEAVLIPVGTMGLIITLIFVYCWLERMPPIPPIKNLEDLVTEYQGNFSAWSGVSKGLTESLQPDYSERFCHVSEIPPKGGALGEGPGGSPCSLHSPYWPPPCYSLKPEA
# T3: human IL-2Rαβγc (on Kit225-STAT5 reporter cells, NK-92 cells, primary Treg cells) (human, UniProt P01589 22-272; P14784 27-551; P31785 23-369)
# T3 sequence (looked up) 1: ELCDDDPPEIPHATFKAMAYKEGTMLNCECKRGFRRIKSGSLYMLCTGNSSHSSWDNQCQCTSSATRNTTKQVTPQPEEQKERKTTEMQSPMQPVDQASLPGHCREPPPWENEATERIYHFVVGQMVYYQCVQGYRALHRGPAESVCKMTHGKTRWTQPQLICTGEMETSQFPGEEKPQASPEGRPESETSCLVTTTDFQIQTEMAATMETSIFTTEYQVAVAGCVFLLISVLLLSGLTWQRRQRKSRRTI
# T3 sequence (looked up) 2: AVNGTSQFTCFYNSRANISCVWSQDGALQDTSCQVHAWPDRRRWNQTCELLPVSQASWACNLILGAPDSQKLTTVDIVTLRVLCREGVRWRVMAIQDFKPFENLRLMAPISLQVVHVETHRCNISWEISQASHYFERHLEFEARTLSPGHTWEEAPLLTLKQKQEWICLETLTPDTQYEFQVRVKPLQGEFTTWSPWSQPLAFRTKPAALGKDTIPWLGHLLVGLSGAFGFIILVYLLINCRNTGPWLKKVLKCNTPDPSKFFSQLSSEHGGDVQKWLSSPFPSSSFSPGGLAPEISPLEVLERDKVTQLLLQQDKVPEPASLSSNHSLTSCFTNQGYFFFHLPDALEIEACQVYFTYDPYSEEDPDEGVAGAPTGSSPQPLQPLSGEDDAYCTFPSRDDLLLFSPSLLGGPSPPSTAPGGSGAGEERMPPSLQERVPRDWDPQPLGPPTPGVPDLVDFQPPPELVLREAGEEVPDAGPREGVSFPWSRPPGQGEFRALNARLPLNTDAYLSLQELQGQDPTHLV
# T3 sequence (looked up) 3: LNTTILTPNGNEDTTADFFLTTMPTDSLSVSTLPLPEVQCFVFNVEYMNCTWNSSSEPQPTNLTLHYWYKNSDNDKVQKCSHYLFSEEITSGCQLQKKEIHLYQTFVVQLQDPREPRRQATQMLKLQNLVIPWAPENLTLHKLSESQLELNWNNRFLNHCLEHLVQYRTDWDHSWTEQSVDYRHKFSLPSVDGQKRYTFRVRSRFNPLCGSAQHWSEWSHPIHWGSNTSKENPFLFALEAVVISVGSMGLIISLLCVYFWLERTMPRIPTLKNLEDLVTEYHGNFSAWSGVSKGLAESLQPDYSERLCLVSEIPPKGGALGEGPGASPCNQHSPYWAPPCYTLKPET
# T4: human IL-2Rβγc (on DERL-7 cells, U2OS IL2RB/IL2RG cells, CD25 knockout Kit225-STAT5 cells, primary CD8+ CTLs) (human, UniProt P14784 27-551; P31785 23-369)
# T4 sequence (looked up) 1: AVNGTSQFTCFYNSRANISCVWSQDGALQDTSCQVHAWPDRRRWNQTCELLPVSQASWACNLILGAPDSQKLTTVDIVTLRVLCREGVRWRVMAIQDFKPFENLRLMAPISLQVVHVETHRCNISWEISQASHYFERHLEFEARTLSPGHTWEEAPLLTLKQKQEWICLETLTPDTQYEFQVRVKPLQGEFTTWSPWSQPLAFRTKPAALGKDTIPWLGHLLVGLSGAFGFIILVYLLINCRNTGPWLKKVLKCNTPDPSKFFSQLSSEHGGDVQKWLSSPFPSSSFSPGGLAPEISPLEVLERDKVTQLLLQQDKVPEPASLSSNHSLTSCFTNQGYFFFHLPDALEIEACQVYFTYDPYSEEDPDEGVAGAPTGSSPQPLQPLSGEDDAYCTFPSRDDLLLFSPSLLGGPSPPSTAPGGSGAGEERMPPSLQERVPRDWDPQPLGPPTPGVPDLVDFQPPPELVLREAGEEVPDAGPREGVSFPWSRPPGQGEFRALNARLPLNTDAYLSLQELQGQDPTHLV
# T4 sequence (looked up) 2: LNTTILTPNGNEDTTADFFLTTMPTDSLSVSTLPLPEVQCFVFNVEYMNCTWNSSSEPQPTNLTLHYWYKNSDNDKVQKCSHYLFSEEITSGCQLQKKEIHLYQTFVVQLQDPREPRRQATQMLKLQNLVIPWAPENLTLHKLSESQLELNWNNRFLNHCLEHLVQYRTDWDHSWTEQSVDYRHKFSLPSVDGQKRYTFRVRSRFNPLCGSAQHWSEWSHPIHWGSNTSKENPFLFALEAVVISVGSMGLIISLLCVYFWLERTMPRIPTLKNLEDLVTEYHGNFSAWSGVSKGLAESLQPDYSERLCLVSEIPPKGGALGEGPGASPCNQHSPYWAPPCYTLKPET
# How the values were obtained:
# Human IL-2Rβ (Table 7B) = molecular target: T1, Human IL-2Rβ (Table 7B); assay: SPR (Biacore T200)
# [1] = molecular target: T2, mouse IL-2Rαβγc (on CTLL2-STAT5 …); assay: cell-based or functional assay
# [2] = molecular target: T3, human IL-2Rαβγc (on Kit225-STAT5 …); assay: cell-based or functional assay
# [3] = molecular target: T4, human IL-2Rβγc (on DERL-7 cells, U2OS …); assay: cell-based or functional assay
# [4] = molecular target: T4, human IL-2Rβγc (on DERL-7 cells, U2OS …); assay: cell-based or functional assay; remark: listed apart in the source
Binder,Kd (Human IL-2Rβ (Table 7B)),koff (Human IL-2Rβ (Table 7B)),kon (Human IL-2Rβ (Table 7B)),STAT5-CTLL2 EC50 [1],STAT5-CTLL2 EC50 Fold Change [1],NK-92 EC50 Fold Change [2],NK-92 cell assay EC50 [2],U2OS B/BG EC50 Fold Change [3],U2OS B/BG bridging cell assay EC50 [3],DERL7 EC50 Fold Change [4],DERL7 cell assay EC50 [4]
Ald-6HIS_F41K/E60T (ligand) PTSSSTKKTQLQLEHLLLDLQMILNGINNYKNPKLTRMLTKKFYMPKKATELKHLQCLETELKPLEEVLNLAQSKNFHLRPRDLISNINVIVLELKGSETTFMCEYADETATIVEFLNRWITFSQSIISTLTGGSHHHHHH,1100 nM,0.47 s⁻¹,440000 M⁻¹ s⁻¹,103 nM,11400 fold,11.4 fold,0.079 nM,3.15 fold,0.502 nM,2.01 fold,0.036 nM
Ald-6HIS_R37A/E60T (ligand) PTSSSTKKTQLQLEHLLLDLQMILNGINNYKNPKLTAMLTFKFYMPKKATELKHLQCLETELKPLEEVLNLAQSKNFHLRPRDLISNINVIVLELKGSETTFMCEYADETATIVEFLNRWITFSQSIISTLTGGSHHHHHH,1100 nM,0.082 s⁻¹,75000 M⁻¹ s⁻¹,0.129 nM,14.3 fold,4.46 fold,0.031 nM,3.28 fold,0.522 nM,2.14 fold,0.038 nM
Ald-6HIS_R37A/F41K (ligand) PTSSSTKKTQLQLEHLLLDLQMILNGINNYKNPKLTAMLTKKFYMPKKATELKHLQCLEEELKPLEEVLNLAQSKNFHLRPRDLISNINVIVLELKGSETTFMCEYADETATIVEFLNRWITFSQSIISTLTGGSHHHHHH,1000 nM,0.3 s⁻¹,300000 M⁻¹ s⁻¹,11 nM,1220 fold,7.31 fold,0.051 nM,2.32 fold,0.37 nM,1.18 fold,0.021 nM
Ald-6HIS_R37A/T40D/E60T (ligand) PTSSSTKKTQLQLEHLLLDLQMILNGINNYKNPKLTAMLDFKFYMPKKATELKHLQCLETELKPLEEVLNLAQSKNFHLRPRDLISNINVIVLELKGSETTFMCEYADETATIVEFLNRWITFSQSIISTLTGGSHHHHHH,1900 nM,0.42 s⁻¹,220000 M⁻¹ s⁻¹,6.22 nM,689 fold,11 fold,0.076 nM,2.53 fold,0.403 nM,2.41 fold,0.043 nM
Ald-6HIS_T40D/E60T (ligand) PTSSSTKKTQLQLEHLLLDLQMILNGINNYKNPKLTRMLDFKFYMPKKATELKHLQCLETELKPLEEVLNLAQSKNFHLRPRDLISNINVIVLELKGSETTFMCEYADETATIVEFLNRWITFSQSIISTLTGGSHHHHHH,990 nM,0.36 s⁻¹,360000 M⁻¹ s⁻¹,2.2 nM,244 fold,4.61 fold,0.032 nM,3.09 fold,0.492 nM,1.55 fold,0.028 nM

# Now those with a lower Kd (Human IL-2Rβ (Table 7B)), led by results:
Kd (Human IL-2Rβ (Table 7B)),koff (Human IL-2Rβ (Table 7B)),kon (Human IL-2Rβ (Table 7B)),STAT5-CTLL2 EC50 [1],STAT5-CTLL2 EC50 Fold Change [1],NK-92 EC50 Fold Change [2],NK-92 cell assay EC50 [2],U2OS B/BG EC50 Fold Change [3],U2OS B/BG bridging cell assay EC50 [3],DERL7 EC50 Fold Change [4],DERL7 cell assay EC50 [4],Binder
860 nM,0.013 s⁻¹,,95.2 nM,10500 fold,9.03 fold,0.063 nM,2.04 fold,0.325 nM,1.46 fold,0.026 nM,Ald-6HIS_R37A/F41K/E60T (ligand) PTSSSTKKTQLQLEHLLLDLQMILNGINNYKNPKLTAMLTKKFYMPKKATELKHLQCLETELKPLEEVLNLAQSKNFHLRPRDLISNINVIVLELKGSETTFMCEYADETATIVEFLNRWITFSQSIISTLTGGSHHHHHH
770 nM,0.3 s⁻¹,390000 M⁻¹ s⁻¹,,,,,,,,,Ald_F41/Y44A/l71G* (ligand) PTSSSTKKTQLQLEHLLLDLQMILNGINNYKNPKLTRMLTAKFAMPKKATELKHLQCLEEELKPLEEVLNGAQSKNFHLRPRDLISNINVIVLELKGSETTFMCEYADETATIVEFLNRWITFSQSIISTLTGGSHHHHHH
730 nM,0.25 s⁻¹,340000 M⁻¹ s⁻¹,0.101 nM,11.2 fold,2.06 fold,0.014 nM,2.83 fold,0.451 nM,1.31 fold,0.023 nM,Ald-6HIS_R37A/T40D (ligand) PTSSSTKKTQLQLEHLLLDLQMILNGINNYKNPKLTAMLDFKFYMPKKATELKHLQCLEEELKPLEEVLNLAQSKNFHLRPRDLISNINVIVLELKGSETTFMCEYADETATIVEFLNRWITFSQSIISTLTGGSHHHHHH
590 nM,0.24 s⁻¹,410000 M⁻¹ s⁻¹,12.7 nM,1400 fold,3.73 fold,0.026 nM,1.16 fold,0.185 nM,0.71 fold,0.013 nM,Ald-6HIS_R37A/T40D/F41K (ligand) PTSSSTKKTQLQLEHLLLDLQMILNGINNYKNPKLTAMLDKKFYMPKKATELKHLQCLEEELKPLEEVLNLAQSKNFHLRPRDLISNINVIVLELKGSETTFMCEYADETATIVEFLNRWITFSQSIISTLTGGSHHHHHH
